Experimental data from IntAct's records for PubMed 19850925.

B1: Complement factor H (Homo sapiens), P08603 (parent)
chain: MRLLAKIICLMLWAICVAEDCNELPPRRNTEILTGSWSDQTYPEGTQAIYKCRPGYRSLGNVIMVCRKGEWVALNPLRKCQKRPCGHPGDTPFGTFTLTGGNVFEYGVKAVYTCNEGYQLLGEINYRECDTDGWTNDIPICEVVKCLPVTAPENGKIVSSAMEPDREYHFGQAVRFVCNSGYKIEGDEEMHCSDDGFWSKEKPKCVEISCKSPDVINGSPISQKIIYKENERFQYKCNMGYEYSERGDAVCTESGWRPLPSCEEKSCDNPYIPNGDYSPLRIKHRTGDEITYQCRNGFYPATRGNTAKCTSTGWIPAPRCTLKPCDYPDIKHGGLYHENMRRPYFPVAVGKYYSYYCDEHFETPSGSYWDHIHCTQDGWSPAVPCLRKCYFPYLENGYNQNYGRKFVQGKSIDVACHPGYALPKAQTTVTCMENGWSPTPRCIRVKTCSKSSIDIENGFISESQYTYALKEKAKYQCKLGYVTADGETSGSITCGKDGWSAQPTCIKSCDIPVFMNARTKNDFTWFKLNDTLDYECHDGYESNTGSTTGSIVCGYNGWSDLPICYERECELPKIDVHLVPDRKKDQYKVGEVLKFSCKPGFTIVGPNSVQCYHFGLSPDLPICKEQVQSCGPPPELLNGNVKEKTKEEYGHSEVVEYYCNPRFLMKGPNKIQCVDGEWTTLPVCIVEESTCGDIPELEHGWAQLSSPPYYYGDSVEFNCSESFTMIGHRSITCIHGVWTQLPQCVAIDKLKKCKSSNLIILEEHLKNKKEFDHNSNIRYRCRGKEGWIHTVCINGRWDPEVNCSMAQIQLCPPPPQIPNSHNMTTTLNYRDGEKVSVLCQENYLIQEGEEITCKDGRWQSIPLCVEKIPCSQPPQIEHGTINSSRSSQESYAHGTKLSYTCEGGFRISEENETTCYMGKWSSPPQCEGLPCKSPPEISHGVVAHMSDSYQYGEEVTYKCFEGFGIDGPAIAKCLGEKWSHPPSCIKTDCLSLPSFENAIPMGEKKDVYKAGEQVTYTCATYYKMDGASNVTCINSRWTGRPTCRDTSCVNPPTVQNAYIVSRQMSKYPSGERVRYQCRSPYEMFGDEEVMCLNGNWTEPPQCKDSTGKCGPPPPIDNGDITSFPLSVYAPASSVEYQCQNLYQLEGNKRITCRNGQWSEPPKCLHPCVISREIMENYNIALRWTAKQKLYSRTGESVEFVCKRGYRLSSRSHTLRTTCWDGKLEYPTCAKR
partner: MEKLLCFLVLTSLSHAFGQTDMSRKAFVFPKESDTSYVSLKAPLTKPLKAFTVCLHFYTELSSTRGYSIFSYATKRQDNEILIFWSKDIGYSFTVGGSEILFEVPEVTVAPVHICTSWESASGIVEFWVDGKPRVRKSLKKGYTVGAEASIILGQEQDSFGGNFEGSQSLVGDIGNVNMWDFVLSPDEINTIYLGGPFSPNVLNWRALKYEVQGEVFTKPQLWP

Variants of: B1
Details: with crp_human CRP

| Variant | effect of a mutation on the interaction |
| --- | --- |
| Y402H | decreasing interaction strength |
